Reference: patent publication US20240342320A1 (GUANGZHOU GENBIONOVA MEDICAL TECHNOLOGY, published 2024)
Positions of bridges follow the written chain, without caps; N, C: chain ends. Non-standard residues stand in square brackets, D forms with d. Primed or numbered codes have the meaning given here. No end group written: not given here. PEG4′ = not defined here; NOTA′ = NOTA chelator

Legend:
[1] = target: Integrin α6β4 protein; assay: MST, integrin α6β4
[2] = target: Integrin α6β4 protein; assay: MST, ratio of mean KD against …
Method: (§1) The affinity between these 18 polypeptides and integrin α6β4 was detected by microscale thermophoresis (MST) method as follows: [0053] 1) Integrin α6β4 protein was dissolved to 800 nM, and polypeptide was dissolved to 100 μM. [0054] 2) A RED-tris-NTA second-generation dye was diluted to 100 nM by using the MO series RED-tris-NTA protein labeling kit. [0055] 3) 100 μl α6β4 protein was mixed with 50 μl dye and incubated at room temperature for 30 min, so that the α6β4 protein binds to the dye. [0056] 4) 10 μl polypeptide was transferred into a PCR tube, and was diluted with PBST (containing 0.05% Tween 20) at a ratio of 1:1 to 16 gradients of concentrations. [0057] 5) 3 μl protein/dye mixture was transferred into a PCR tube, 3 μl of 16 different concentrations of polypeptides was respectively added and mixed well. [0058] 6) The mixture was absorbed by capillary and loaded on machine (instrument model Monolith NT.115) to assay, parameters were set as 80% LED/excitation power and medium MST power. [0059] 7) MO. Affinity Analysis software was used to calculate the equilibrium dissociation constant KD between α6β4 protein and polypeptide by KD fitting mode.

[3] = target: Integrin α6β4 protein; assay: MST, dye-labelled integrin α6β4, run 2
Method: as §1

[4] = target: Integrin α6β4 protein; assay: MST, dye-labelled integrin α6β4, run 1
Method: as §1

[5] = target: Integrin α6β4 protein; assay: MST, dye-labelled integrin α6β4, run 3
Method: as §1

[6] = target: Integrin α6β4 protein; assay: MST, dye-labelled integrin α6β4, mean of 3 runs
Method: as §1

[7] = target: Integrin α6β1; assay: MST (FIG. 2B), integrin α6β1
[8] = target: Integrin α6β4 protein; assay: MST, dye-labelled integrin α6β4; unrounded mean of the table's 0.02 µM
Method: as §1

Chain of Integrin α6β1 (chain, as listed by the source, chain 1 of 2): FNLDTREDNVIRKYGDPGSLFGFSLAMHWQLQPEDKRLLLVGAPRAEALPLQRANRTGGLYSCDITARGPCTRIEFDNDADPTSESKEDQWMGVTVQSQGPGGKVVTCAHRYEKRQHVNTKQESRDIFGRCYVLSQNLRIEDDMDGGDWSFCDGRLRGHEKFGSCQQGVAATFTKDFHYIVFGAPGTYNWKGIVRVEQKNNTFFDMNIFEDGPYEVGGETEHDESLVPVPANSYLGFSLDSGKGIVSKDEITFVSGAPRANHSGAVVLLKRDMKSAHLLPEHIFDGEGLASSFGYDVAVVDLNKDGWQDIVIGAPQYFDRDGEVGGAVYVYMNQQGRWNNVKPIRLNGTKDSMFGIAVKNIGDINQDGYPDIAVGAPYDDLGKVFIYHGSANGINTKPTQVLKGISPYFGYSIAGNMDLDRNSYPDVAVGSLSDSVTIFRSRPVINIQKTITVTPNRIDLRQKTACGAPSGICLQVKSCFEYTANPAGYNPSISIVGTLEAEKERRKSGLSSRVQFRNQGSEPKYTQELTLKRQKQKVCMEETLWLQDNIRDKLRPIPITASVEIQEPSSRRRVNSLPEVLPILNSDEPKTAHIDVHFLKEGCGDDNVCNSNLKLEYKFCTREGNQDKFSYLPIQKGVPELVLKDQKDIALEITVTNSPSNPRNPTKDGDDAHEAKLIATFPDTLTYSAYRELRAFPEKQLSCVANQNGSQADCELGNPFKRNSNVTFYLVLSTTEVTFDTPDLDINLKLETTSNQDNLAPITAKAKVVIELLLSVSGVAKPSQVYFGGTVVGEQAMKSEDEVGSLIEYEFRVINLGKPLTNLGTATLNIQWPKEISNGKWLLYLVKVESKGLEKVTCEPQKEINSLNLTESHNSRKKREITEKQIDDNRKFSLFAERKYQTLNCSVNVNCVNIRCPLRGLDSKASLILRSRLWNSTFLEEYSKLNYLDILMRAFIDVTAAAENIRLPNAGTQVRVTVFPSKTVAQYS
Chain of Integrin α6β1 (chain, as listed by the source, chain 2 of 2): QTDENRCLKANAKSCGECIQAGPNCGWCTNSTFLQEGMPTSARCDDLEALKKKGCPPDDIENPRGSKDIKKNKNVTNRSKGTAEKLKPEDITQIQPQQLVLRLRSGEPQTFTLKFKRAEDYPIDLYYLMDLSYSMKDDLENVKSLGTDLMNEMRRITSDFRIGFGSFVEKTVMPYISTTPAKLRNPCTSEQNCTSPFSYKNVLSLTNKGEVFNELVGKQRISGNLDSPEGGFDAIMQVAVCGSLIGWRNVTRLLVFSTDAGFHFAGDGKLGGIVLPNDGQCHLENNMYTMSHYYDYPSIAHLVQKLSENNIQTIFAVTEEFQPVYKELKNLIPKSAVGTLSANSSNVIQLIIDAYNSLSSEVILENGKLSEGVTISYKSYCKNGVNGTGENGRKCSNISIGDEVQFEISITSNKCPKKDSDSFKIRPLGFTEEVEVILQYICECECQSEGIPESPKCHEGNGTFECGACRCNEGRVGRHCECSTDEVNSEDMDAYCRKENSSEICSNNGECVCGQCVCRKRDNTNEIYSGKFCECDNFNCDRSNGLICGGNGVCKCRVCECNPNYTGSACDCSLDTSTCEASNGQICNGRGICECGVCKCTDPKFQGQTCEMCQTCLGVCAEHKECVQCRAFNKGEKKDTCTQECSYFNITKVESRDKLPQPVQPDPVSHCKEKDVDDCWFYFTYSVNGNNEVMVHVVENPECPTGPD

| Binder | Kd [1] [µM] | Affinity relative to RWY [2] [fold] | Kd [3] [µM] | Kd [4] [µM] | Kd [5] [µM] | Kd [6] [µM] | Kd [7] [µM] | Kd [8] [µM] | fold increase of affinity against RWYD-PEG4-K-NOTA [1] [fold] |
| --- | --- | --- | --- | --- | --- | --- | --- | --- | --- |
| RWYD[PEG4′]K-{NOTA′} (The unlabelled form was used in MST; also called RD) [RWYD-PEG4-K-NOTA] | 0.642 | – | – | – | – | – | – | – | – |
| RWYDE (Straight-chain peptide; also called P13) | – | 0.11 | 78.8 | 14.7 | 99.6 | 64.4 | – | – | – |
| RWYDAN (Straight-chain peptide; also called P11) | – | 0.22 | 23.2 | 34.6 | 35.7 | 31.2 | – | – | – |
| RWYDEN (Straight-chain peptide; also called P9) | – | 0.66 | 8.73 | 9.69 | 13.1 | 10.5 | – | – | – |
| RWYAEN (Straight-chain peptide; also called P16) | – | 0.9 | 6.08 | 7.31 | 9.74 | 7.71 | – | – | – |
| RWYD (also called P15; linear quaternary polypeptide RWYD) | – | 327 | 0.018 | 0.02 | 0.026 | 0.02 | 0.0531 | 0.0218 | – |
| CRAYDENAC (disulfide 1-9 (inferred), also called P3) | – | 0.52 | 11.8 | 14.4 | 13.8 | 13.3 | – | – | – |
| RWYDEA (Straight-chain peptide; also called P12) | – | 2.2 | 2.49 | 5.26 | 1.74 | 3.16 | – | – | – |
| CRWYDANAC (disulfide 1-9 (inferred), also called P6) | – | 1.61 | 7.99 | 1.21 | 3.83 | 4.34 | – | – | – |
| RWYDA (Straight-chain peptide; also called P14) | – | 1.38 | 4.69 | 6.28 | 4.22 | 5.06 | – | – | – |

Continued, values first:

| Kd [1] [µM] | Affinity relative to RWY [2] [fold] | Kd [3] [µM] | Kd [4] [µM] | Kd [5] [µM] | Kd [6] [µM] | Kd [7] [µM] | Kd [8] [µM] | fold increase of affinity against RWYD-PEG4-K-NOTA [1] [fold] | Binder |
| --- | --- | --- | --- | --- | --- | --- | --- | --- | --- |
| – | 1.06 | 12.1 | 4.03 | 3.58 | 6.58 | – | – | – | CAWYDENAC (disulfide 1-9 (inferred), also called P2) |
| – | 11.2 | 0.25 | 0.25 | 1.37 | 0.62 | – | – | – | CRWYDEAAC (disulfide 1-9 (inferred), also called P7) |
| – | 1 | 6.52 | 8.59 | 5.81 | 6.97 | – | – | – | CRWYDENAC (disulfide 1-9 (inferred), also called P1) |
| – | 17 | 0.22 | 0.36 | 0.65 | 0.41 | – | – | – | CRWYAENAC (disulfide 1-9 (inferred), also called P5) |
| – | 0.23 | 17.5 | 62.1 | 12.4 | 30.7 | – | – | – | RWYDANA (Straight-chain peptide; also called P10) |
| 0.0648 | – | – | – | – | – | – | – | ~10 | RWYD (not fully specified; each RWYD carries PEG4 at its C-terminus; two RWYD-PEG4 units are joined through lysine, followed by K-NOTA: (RWYD-PEG4)2-K-K-NOTA, also called RD2; RD2 dimer) [(RWYD-PEG4)2-K-K-NOTA] |
